From patent US5998142 come the findings set out here.

Series [1] concerns the target T1, neutrophil elastase (hNE) (Homo sapiens) (UniProt P08246).
T1 sequence: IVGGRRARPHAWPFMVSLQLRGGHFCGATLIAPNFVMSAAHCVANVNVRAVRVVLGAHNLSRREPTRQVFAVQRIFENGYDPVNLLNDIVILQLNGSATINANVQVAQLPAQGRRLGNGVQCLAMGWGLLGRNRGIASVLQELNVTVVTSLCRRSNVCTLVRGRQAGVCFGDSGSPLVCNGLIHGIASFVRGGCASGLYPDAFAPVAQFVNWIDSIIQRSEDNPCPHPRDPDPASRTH
Description: inhibition.

The target in series [2] is bradykinin, N-bromoacetylated (BrBK) (UniProt P01042). The note with it: 5'-GMPS (5' guanosine monophosphorothioate).
Sequence of bradykinin, N-bromoacetylated (BrBK) (P01042 whole entry, looked up): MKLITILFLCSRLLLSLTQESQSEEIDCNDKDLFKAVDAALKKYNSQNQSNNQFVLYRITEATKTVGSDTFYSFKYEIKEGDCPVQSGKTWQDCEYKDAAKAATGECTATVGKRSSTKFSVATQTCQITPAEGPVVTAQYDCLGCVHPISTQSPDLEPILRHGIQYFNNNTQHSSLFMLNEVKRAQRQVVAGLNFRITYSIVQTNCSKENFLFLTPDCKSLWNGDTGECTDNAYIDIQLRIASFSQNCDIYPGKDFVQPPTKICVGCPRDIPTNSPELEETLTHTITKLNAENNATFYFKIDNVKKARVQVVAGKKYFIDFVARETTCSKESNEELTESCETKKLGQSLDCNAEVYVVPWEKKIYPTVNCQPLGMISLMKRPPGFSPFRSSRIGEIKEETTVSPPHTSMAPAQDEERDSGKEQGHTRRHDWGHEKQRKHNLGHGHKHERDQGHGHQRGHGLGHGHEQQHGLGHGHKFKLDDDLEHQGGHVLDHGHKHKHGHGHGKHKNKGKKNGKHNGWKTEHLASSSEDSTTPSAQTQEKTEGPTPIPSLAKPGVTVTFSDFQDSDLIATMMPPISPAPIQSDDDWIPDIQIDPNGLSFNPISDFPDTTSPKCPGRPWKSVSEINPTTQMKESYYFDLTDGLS

Consider “GGGAGGACGATGCGGCAGNNGGNNCAGGTAATGTGAGTAACCTCTACTACTCTGCAGACGACGAGCGGGA [ED15]”, for which the activity in series [1] (kinact/KI, room temperature) was 4.8e+08 M⁻¹ min⁻¹.
As to “GGGAGCUCAGAAUAAACGCUCAANNNNNNNNNNNNNNNNNNNNNNNNNNNNNNUUCGACAUGAGGCCCGGAUCCGGC [30N1 pool]”, the K half in series [2] amounted to 13 mM.
For “GGGAGGACGAUGCGGNNNNNNNNNNNNNNNNNNNNNNNNNNNNNNNNNNNNNNNNCAGACGACGAGCGGGA [40N7.1 rd0 RNA:DNA:valP]”, the activity in series [1] (2'-NH2 U and C, kinact/[I], unit not given, pool, 37 C) amounted to 290000.
In series [1] (kinact/KI, pool, room temperature), “GGGAGGACGAUGCGGNNNNNNNNNNNNNNNNNNNNNNNNNNNNNNNNNNNNNNNNCAGACGACGAGCGGGA [40N7.1 ssDNA pool]” returned an activity of 1.86e+06 M⁻¹ min⁻¹.
As for “GGGAGGACGATGCGGACCACAGCCACTAGNNGCATCGTCCTCTGCGTCCAGACGACGAGCGGGA [ED21]”, the activity in series [1] (kinact/KI, room temperature) turned out to be 3.2e+06 M⁻¹ min⁻¹.
